The test concerns the target LFA-1 (Homo sapiens, UniProt P20701). Description: BLI.

LFA-1, sequence (P20701 26-1170, chain 1 of 2): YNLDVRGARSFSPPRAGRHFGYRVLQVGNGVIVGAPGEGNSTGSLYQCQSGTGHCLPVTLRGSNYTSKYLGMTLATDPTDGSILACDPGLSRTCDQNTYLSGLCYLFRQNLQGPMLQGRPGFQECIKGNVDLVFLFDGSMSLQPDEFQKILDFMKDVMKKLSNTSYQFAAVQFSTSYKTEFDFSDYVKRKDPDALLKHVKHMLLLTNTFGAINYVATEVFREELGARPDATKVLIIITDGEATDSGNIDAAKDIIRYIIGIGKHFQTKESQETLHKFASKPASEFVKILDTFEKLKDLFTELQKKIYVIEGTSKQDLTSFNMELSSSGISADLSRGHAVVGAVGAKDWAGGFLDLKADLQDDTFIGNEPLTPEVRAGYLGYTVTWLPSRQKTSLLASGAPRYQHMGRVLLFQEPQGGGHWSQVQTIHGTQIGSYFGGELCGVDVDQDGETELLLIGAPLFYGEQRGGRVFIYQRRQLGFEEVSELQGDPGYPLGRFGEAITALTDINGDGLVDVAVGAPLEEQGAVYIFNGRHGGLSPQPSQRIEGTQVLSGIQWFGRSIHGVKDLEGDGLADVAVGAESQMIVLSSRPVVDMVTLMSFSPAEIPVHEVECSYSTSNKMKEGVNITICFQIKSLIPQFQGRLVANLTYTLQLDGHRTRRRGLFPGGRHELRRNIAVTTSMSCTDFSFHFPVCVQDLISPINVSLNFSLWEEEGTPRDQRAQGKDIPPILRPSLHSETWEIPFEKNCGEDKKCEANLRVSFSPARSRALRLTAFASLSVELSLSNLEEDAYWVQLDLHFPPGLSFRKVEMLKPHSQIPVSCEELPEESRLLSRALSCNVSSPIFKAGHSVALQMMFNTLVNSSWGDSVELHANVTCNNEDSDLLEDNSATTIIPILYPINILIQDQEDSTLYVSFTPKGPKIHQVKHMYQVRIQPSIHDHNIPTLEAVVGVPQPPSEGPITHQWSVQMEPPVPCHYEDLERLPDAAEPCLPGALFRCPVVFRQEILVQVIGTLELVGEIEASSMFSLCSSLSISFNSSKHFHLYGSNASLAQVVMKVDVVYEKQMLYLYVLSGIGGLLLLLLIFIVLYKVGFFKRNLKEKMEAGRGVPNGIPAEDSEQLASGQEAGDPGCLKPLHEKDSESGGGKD
LFA-1, sequence (chain, as listed by the source, chain 2 of 2): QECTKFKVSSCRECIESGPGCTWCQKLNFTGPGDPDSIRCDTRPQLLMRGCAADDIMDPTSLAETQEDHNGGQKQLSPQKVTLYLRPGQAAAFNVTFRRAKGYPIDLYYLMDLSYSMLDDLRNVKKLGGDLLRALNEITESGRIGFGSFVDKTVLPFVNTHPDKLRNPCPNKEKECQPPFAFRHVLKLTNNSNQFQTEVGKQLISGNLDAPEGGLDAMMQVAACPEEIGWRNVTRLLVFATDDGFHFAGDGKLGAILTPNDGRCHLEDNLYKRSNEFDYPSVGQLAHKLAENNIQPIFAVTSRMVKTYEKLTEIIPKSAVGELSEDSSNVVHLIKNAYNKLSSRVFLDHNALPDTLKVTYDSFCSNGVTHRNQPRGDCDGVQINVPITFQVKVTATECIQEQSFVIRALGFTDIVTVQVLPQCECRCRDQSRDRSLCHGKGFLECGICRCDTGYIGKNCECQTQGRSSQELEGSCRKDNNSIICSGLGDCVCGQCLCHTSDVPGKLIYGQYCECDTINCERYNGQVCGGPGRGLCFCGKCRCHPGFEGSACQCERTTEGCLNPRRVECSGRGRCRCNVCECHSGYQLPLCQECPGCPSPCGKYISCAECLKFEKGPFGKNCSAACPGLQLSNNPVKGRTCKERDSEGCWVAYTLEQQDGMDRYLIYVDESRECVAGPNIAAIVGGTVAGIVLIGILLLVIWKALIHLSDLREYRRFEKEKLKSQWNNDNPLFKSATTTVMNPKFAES

B1: GBP-130 ectodomain (protein)
chain: MRLSKVSDIKSTGVSNYKNFNSKNSSKYSLMEVSKKNEKKNSLGAFHSKKILLIFGIIYVVLLNAYICGDKYEKAVDYGFRESRILAEGEDTCARKEKTTLRKSKQKTSTRTVATQTKKDEENKSVVTEEQKVESDSEKQKRTKKVVKKQINIGDTENQKEGKNVKKVIKKEKKKEESGKPEENKHANEASKKQEPKASKVSQKPSTSTRSNNEVKIRAASNQETLTSADPEGQIMREYAADPEYRKHLEIFYKILTNTDPNDEVERRNADNKEDLTSADPEGQIMREYASDPEYRKHLEIFYKILTNTDPNDDVERRNADNKEDLTSADPEGQIMREYAADPEYRKHLEVFHKILTNTDPNDEVERRNADNKEDLTSADPEGQIMREYAADPEYRKHLEVFHKILTNTDPNDEVERRNADNKELTSSDPEGQIMREYAADPEYRKHLEVFHKILTNTDPNDEVERRNADNKEDLTSADPEGQIMREYAADPEYRKHLEVFHKILTNTDPNDEVERRNADNKEDLTSADPEGQIMREYAADPEYRKHLEIFHKILTNTDPNDEVERRNADNKEDLTSADPEGQIMREYAADPEYRKHLEIFYKILTNTDPNDEVERRNADNKEELTSSDPEGQIMREYAADPEYRKHLEIFHKILTNTDPNDEVERRNADNKEDLTSADPEGQIMREYAADPEYRKHLEIFYKILTNTDPNDEVERRNADNKEDLTSADPEGQIMREYASDPEYRKHLEIFYKILTNTDPNDDVERRNADNKEDLTSADPEGQIMREYAADPEYRKHLEVFHKILTNTDPNDEVERQNADNNEA
In general, Kd refers to the equilibrium constant for the complex coming apart. Low readings indicate tighter binding, high ones weaker binding. On to B1, for which binding was put at a Kd of 15 nM.

For the origin of these results see PMC13218722 (2026).
